B1: PABPC1 RRM2 including the RRM2-3 linker (residues 100-190) (domain or fragment)
chain: not shown
B2: Paip2A(25-83) (residues 25-83 of PABP-interacting protein 2A) (domain or fragment, human, UniProt Q9BPZ3 25-83, looked up)
chain: HEDDNPFAEYMWMENEEEFNRQIEEELWEEEFIERCFQEMLEEEEEHEWFIPARDLPQT
B3: PABPC1 RRM2/3 (residues 100-289) (domain or fragment, human)
chain: GPLGSNIFIKNLDKSIDNKALYDTFSAFGNILSCKVVCDENGSKGYGFVHFETQEAAERAIEKMNGMLLNDRKVFVGRFKSRKEREAELGARAKEFTNVYIKNFGEDMDDERLKDLFGKFGPALSVKVMTDESGKSKGFGFVSFERHEDAQKAVDEMNGKELNGKQIYVGRAQKKVERQTELKRKFEQMKQDRIT
B4: PABPC1 RRM3 including the RRM3-4 linker (residues 191-289) (domain or fragment, human, UniProt P11940 191-289, looked up)
chain: TNVYIKNFGEDMDDERLKDLFGKFGPALSVKVMTDESGKSKGFGFVSFERHEDAQKAVDEMNGKELNGKQIYVGRAQKKVERQTELKRKFEQMKQDRIT

Assays:
[1] = target: B2; assay: ITC
[2] = target: B3; assay: NMR titration
[3] = target: PABPC1 RRM1/2/3/4 (residues 1-370) (human, UniProt P11940 1-370); assay: SPR
[4] = target: poly(A)-binding protein C1 (PABPC1), full length (human, UniProt P11940 1-636); assay: SPR
[5] = target: B1; assay: ITC
[6] = target: B3; assay: ITC
[7] = target: B4; assay: ITC

| dH [1] [kcal/mol] | stoichiometry N [1] | Binder | further results |
| --- | --- | --- | --- |
| -28.7 | 0.87 | B1 |  |
|  |  | PABP-interacting protein 2A (Paip2A), full length (natural protein, human, UniProt Q9BPZ3 1-127, looked up) MKDPSRSSTSPSIINEDVIINGHSHEDDNPFAEYMWMENEEEFNRQIEEELWEEEFIERCFQEMLEEEEEHEWFIPARDLPQTMDQIQDQFNDLVISDGSSLEDLVVKSNLNPNAKEFVPGVKYGNI | binding result [2]: binds; binding result [3]: binds; binding result [4]: binds |
|  |  | B2 | Kd [5]: 4000 nM; Kd [6]: 1.9 nM; Kd [7]: 1300 nM |
| -55 | 0.83 | B3 |  |
| -43 | 0.87 | B4 |  |
